This sample holds only a part of the variants without activity.
B1: TPR 5TU (parent)
chain: GGAUCUUCUCGAUCUAACAAAAAAGACAAAUCUGCCACAAAGCUUGAGAGCAUCUUCGGAUGCAGAGGCGGCAGCCUUCGGUGGCGCGAUAGCGCCAACGUUCUCAACUAUGACACGCAAAACGCGUGCUCCGUUGAAUGGAGUUUAUCAUG

Variants of: B1
Assay: polymerase ribozyme fitness, log enrichment relative to wild type (log ratio); higher = more active; in vitro selection for triplet polymerase activity
Summary of the method: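 After PCR construction and transcription, each subunit's mutant library from a heterodimeric triplet polymerase ribozyme was annealed with a biotinylated primer, the partner subunit and triplets. Incubation was frozen, at −7 °C, and extended constructs were gel-excised, bound to streptavidin beads and amplified by RT-PCR, in one selection round done in triplicate. Fitness is the logarithm of a genotype's enrichment divided by that of the wild type, from inverse-variance-weighted replicate averages of Illumina-sequenced inputs and outputs. The base of the logarithm is 2, and genotypes needed ≥10 input reads and ≥1 read per output.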

Variant	polymerase ribozyme fitness (log ratio)
GGAUCUUCUCGAUCUAACCAAAAAGAUACAUCUGCCACAAAGCUUGAGAGCCUCUUCGGAUGCAGAGGCGGCAGCCUUCGGUGGCCCGAUAGCGCCAACGUUCUCAACUAUGACACGCAAAACGCGUGCUCCGUUGGAUGGAUUUUAUCAUG [A19C C27U A29C A52C G86C A137G G143U]	≤ -4.2
GGAUCUUCUCGAUCUAACCAAAAAGACAAAUCUGCCACAAAGCUUGAGAGCAUCUUCGGAUGCAGAGGCGGCAGCCUUCGGUGGCGCGAUAGCGCCAACGUUCUCAACUAUGACACGCAAAACGCGUGCUCCGUUGAAUGGAGUUUAUCGUG [A19C A150G]	-0.495
GGAUCUUCUCGAUCUAACCAAAAAGACAAAUCUGCCACAAAGCUUGAGAGCAUCUUCGGAUGCAGAGGCGGCAGCCUUCGGUGGCGCGAUAGCGCCAACGUUCUCAACUAUGACACGCAAAACGCGUGCUCCGUUGAAUGGAGUUUAUCUUG [A19C A150U]	2.88
GGAUCUUCUCGAUCUAACCAAAAAGAAAAAUCUGCCACAAAGCUUGCGAGCAUCUUCAAAUGCAGAGGCGGCAGCCUUCGGUGGCGCGAUGGCGCCAACGUUCUCAACUAUGACACGCAAAAAGCGUGCUCCGUUGAAUGGAGUUUAUCAUG [A19C C27A A47C G58A G59A A91G C123A]	≤ -4.2
GGAUCUUCUCGAUCUAACCAAAAAGACAAAUCUGCCACAACGCUUGACAGCAUCUUCGGAUGCAGAGGCGGCAGCCUUCGGUGGCGUGAUCGCGCCAACGUUCUCAACUAUGACCCGCAAAUCGCGUGCUCCGUUCAAUGGAGUAUAUCAUG [A19C A41C G48C C87U A91C A115C A122U G136C U145A]	≤ -4.2
GGAUCUUCUCGAUCUAACCAAAAUGACAAAUCUGCCACAAAGCUUGAGAGCAUCUUCGGAUGCAGAGGCGGCAGCCUUCGGUGGCGCGAUAGUGCCAACGUUCUCAACUAUGACACGCAAAACGCGUGCUCCGUCGAAUGGAGUUUAUCAUG [A19C A24U C93U U135C]	-2.84
GGAUCUUCUCGAUCUAACCUAAAAGACAAAUCUGCCACAAAGCUUGAGAGCAUCUUCGGACGCAGAGGCGGCAGCAUUCGGCGGCGCGAUUGCGCCAACGUUCUCAACUAUGACACGCAAAACGCGUGCGCCGUUGAAUGGAGUUCAUCAUG [A19C A20U U61C C76A U82C A91U U130G U146C]	≤ -4.2
GGAUCUUCUCGAUCUAACCAGAAAGACAAAUCUGCCACAAAGCUUGAGAGCAUCUUAUGAUGCAGAGGCGGUAGCCUUCGGUGGUGCGAUAGCGCCAACGUUUUCAACUAUGACACGCAAAACGCGUGCUCCGCUGAAUGGAGUUUAUCAUG [A19C A21G C57A G58U C72U C85U C103U U134C]	-0.327
GGAUCUUCUCGAUCUAACCAAAAGGACAAAUUUGCCAUAAAGCUUGAGAGCAUCUUCGAAUGCAGAGGCGGCAGCCUUCGGUGGAGCGAUAGCGCCAACGUUCUCAACUAUGACACGCAAAACGCGUGCUCCUUUGAAUGGAGUCUAUCAUG [A19C A24G C32U C38U G59A C85A G133U U145C]	≤ -4.2
GGAUCUUCUCGAUCUAAUAAAAAAGACAAAUCUGCCACAAAGCUUGAGAGCAUCUACGGAUGCAGAGGCGGCAGCCUUCGGUAGCGCGAUAGCGCCAACGUACUCAACUAUGACACGCAAAACGCGUGCUCCGUUGAAUGGAGAUUAUCAUG [C18U U56A G83A U102A U144A]	-3.72
GGAUCUUCUCGAUCUAACCAAAAAGACAAAUCUGCCUCAAAGCUUGAGAGCAUCUUCGGAUGCAGAGGCUGCAGCCUUCGGUGGCGCGAUAGCGCCAACGUUCUCAACUAUGACACGCAAAACGCGUGCUCCGUUGAAUGGAGCUUAUCAUG [A19C A37U G70U U144C]	≤ -4.2
GGAUCUUCUCGAUCUAACCAAAAGGACAAAUCUGCUACAAAGCUUGAGAGCAUCUUAGGAUGCAGAGGCGGCAGCCUUCGGUGGCGCGAUAGCGCCAACGUUCUCAACUAGGACACGCAAGACGCGUGCUCCGUUGAAUGGAGUUUAUCAUG [A19C A24G C36U C57A U111G A121G]	≤ -4.2
GGAUCUUCUCGAUCUAACCAUAAAGACAAAUCUGCCACACAGCUUGAGAGCAUCUUCGGCUGCAGAGGCGGCAGCCUUCGGUGGCGCGAUAGCGCGAACGUUCUCAACUGUGACACGCAAAACGCGUGCUCCGUUUAAUGGAGUUUAUCAUG [A19C A21U A40C A60C C96G A110G G136U]	≤ -4.2
GGAUCUUCUCGAUCUAACCAAUAAGACAAAUCUGACACAAAGCUUGAGAGCAUCUUCGGAUGCAGAGGCGGCAGCCUUCGGUGGCGCGAUAGCGCCAACGUUCUCGACUAUGACACGCAAAACGCGUGCUCCGUUGAAUGGAGUUUAUCAUG [A19C A22U C35A A106G]	-3.28
GGAUCUUCUCGAUCUAACCAAAAGGACAAAUCUGCCACAAAGCUUGAGAGCAUCUUCGGAUGCAGAGGCGGCAGCCUUCGGUGGCGCGAUAGCUGCAACGUUCUCAACUAUGACACGCAAAACGCGUGCUCCGUUGAAUGGAGUUUAUCAUG [A19C A24G G94U C95G]	≤ -4.2
GGAUCUUCUCGAUCUAACCUAAAAGACAAAUCUGCCACAAAGCUUGAGAGCAUCUUCGGAUGCAGAGGCGGCAGCCUUCGGUGGUGCGAUAGCGCCAACGUUCUCAACUAUGACACGCAAAACGCGUGCUCCGUUAAAUGGAGUUUAUCAUG [A19C A20U C85U G136A]	-0.21
GGAUCUUCUCGAUCUAACCAAAAAGCCAAAUCUGCCACAAAGCUUGAGAGCAUCUUCGGAUGCAGAGGCGGCAGCCUUCGGUGGCGCGAUAGCGCCAACGUUCUCAACUAUGACACGCAAAACGCGUGCUCCGUUGAAUGGAGUUUAUCAUG [A19C A26C]	-1.76
GGAUCUUCUCGAUCUAACCAAAAAGACAAAUCUGCCACUAAGCUUGAGAGCAGCUUCGGAUGCAGAGGCGGCAGCCUUCGGUGGCGCGUUAGCGCCAACGUUCGCAAAUAUGACACGCAAAACGCGUGCUCCGUUAACUGGAGUAUAUCAUG [A19C A39U U53G A89U U104G C108A G136A A138C U145A]	≤ -4.2
GGAUCUUCUCGAUCUAACCAAGAAGACAAAGCUGCCAUAAAGCUUGAGAGCAUCUUCGGAUGCAGAGGCGGCAGCCUUCGGUGGCGCGAUAGCGCCAACGUUCUCAUCUAUGACACACAAAACGCGUGCUCCGUUGAAUGGAGUUUAUCAUG [A19C A22G U31G C38U A107U G117A]	-4.16
